Several values for one entry are separate records, joined by “and”; a condition that tells them apart may be missing. Identical values can stand only once.
What was measured:
[1] = target: the molecule itself; assay: mass photometry; single 60-s reading at 200 nM protein, label-free, adsorbed on glass; Buffer 1 (20 mM Tris-HCl, 50 mM NaCl, pH 7.5); stock diluted to 1 uM, then to the final concentration, measured directly after dilution; size of the oligomers
[2] = target: the molecule itself; assay: mass photometry; concentration series 10 to 200 nM protein, cumulative histograms from four measurements; Buffer 1 (20 mM Tris-HCl, 50 mM NaCl, pH 7.5); linear fits and a global fit of noncooperative (isodesmic) assembly coupled with preferential cyclization; Kd is that of a monomer associating with an oligomer of n subunits
RAD52 full length [3] = target: T1, RAD52 full length (human, UniProt P43351 1-418); assay: EMSA; 25 C; Hill 1.4 ± 0.2; EMSA: 25 mM Tris-acetate, 2 mM Mg(OAc)2, 1 mM DTT, pH 7.5, 10 nM ssDNA, 25 C 10 min or 37 C 5 min; mass photometry: 20 mM Tris-HCl, 50 mM NaCl, pH 7.5; details: protein: recombinant; tags: His-tag (pET-15b)
T1 sequence: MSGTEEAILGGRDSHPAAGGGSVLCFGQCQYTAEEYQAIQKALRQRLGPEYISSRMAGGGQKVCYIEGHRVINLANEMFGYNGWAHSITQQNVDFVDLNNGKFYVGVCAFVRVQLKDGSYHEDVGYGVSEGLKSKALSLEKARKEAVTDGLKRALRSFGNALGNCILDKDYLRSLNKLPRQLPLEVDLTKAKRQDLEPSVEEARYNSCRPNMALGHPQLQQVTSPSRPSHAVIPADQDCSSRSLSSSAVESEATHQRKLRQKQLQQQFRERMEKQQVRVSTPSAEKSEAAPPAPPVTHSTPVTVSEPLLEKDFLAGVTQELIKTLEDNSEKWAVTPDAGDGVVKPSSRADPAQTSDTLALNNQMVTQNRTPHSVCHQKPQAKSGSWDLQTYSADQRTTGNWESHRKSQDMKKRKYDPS

RAD52(209) [4] = target: T2, RAD52(209) (human, UniProt P43351 1-209); assay: EMSA; 25 C; Hill 1.5 ± 0.2; EMSA: 25 mM Tris-acetate, 2 mM Mg(OAc)2, 1 mM DTT, pH 7.5, 10 nM ssDNA, 25 C 10 min or 37 C 5 min; mass photometry: 20 mM Tris-HCl, 50 mM NaCl, pH 7.5; details: protein: recombinant; tags: His-tag (pET-15b); chain copies: 11
T2 sequence: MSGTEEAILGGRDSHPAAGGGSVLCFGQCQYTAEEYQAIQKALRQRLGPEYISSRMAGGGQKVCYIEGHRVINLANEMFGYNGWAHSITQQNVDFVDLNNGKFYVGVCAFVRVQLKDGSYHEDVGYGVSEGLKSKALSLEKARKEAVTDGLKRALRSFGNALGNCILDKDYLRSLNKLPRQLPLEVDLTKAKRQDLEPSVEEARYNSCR

RAD52 full length [5] = target: T1, RAD52 full length; assay: EMSA; 37 C; Hill 2.7 ± 0.2; EMSA: 25 mM Tris-acetate, 2 mM Mg(OAc)2, 1 mM DTT, pH 7.5, 10 nM ssDNA, 25 C 10 min or 37 C 5 min; mass photometry: 20 mM Tris-HCl, 50 mM NaCl, pH 7.5; details: protein: recombinant; tags: His-tag (pET-15b)
RAD52(209) [6] = target: T2, RAD52(209); assay: EMSA; 37 C; Hill 3.1 ± 0.5; EMSA: 25 mM Tris-acetate, 2 mM Mg(OAc)2, 1 mM DTT, pH 7.5, 10 nM ssDNA, 25 C 10 min or 37 C 5 min; mass photometry: 20 mM Tris-HCl, 50 mM NaCl, pH 7.5; details: protein: recombinant; tags: His-tag (pET-15b); chain copies: 11
RAD52(209) [7] = target: T2, RAD52(209); assay: mass photometry; 100 nM protein, 10 nM DNA; ring shift 40 ± 4 kDa; EMSA: 25 mM Tris-acetate, 2 mM Mg(OAc)2, 1 mM DTT, pH 7.5, 10 nM ssDNA, 25 C 10 min or 37 C 5 min; mass photometry: 20 mM Tris-HCl, 50 mM NaCl, pH 7.5; details: protein: recombinant; tags: His-tag (pET-15b); chain copies: 11
RAD52(209) [8] = target: T2, RAD52(209); assay: EMSA; 25 C; Hill 1.6 ± 0.3; EMSA: 25 mM Tris-acetate, 2 mM Mg(OAc)2, 1 mM DTT, pH 7.5, 10 nM ssDNA, 25 C 10 min or 37 C 5 min; mass photometry: 20 mM Tris-HCl, 50 mM NaCl, pH 7.5; details: protein: recombinant; tags: His-tag (pET-15b); chain copies: 11
RAD52 full length [9] = target: T1, RAD52 full length; assay: EMSA; 25 C; Hill fixed at 1; EMSA: 25 mM Tris-acetate, 2 mM Mg(OAc)2, 1 mM DTT, pH 7.5, 10 nM ssDNA, 25 C 10 min or 37 C 5 min; mass photometry: 20 mM Tris-HCl, 50 mM NaCl, pH 7.5; details: protein: recombinant; tags: His-tag (pET-15b)
RAD52 full length [10] = target: T1, RAD52 full length; assay: EMSA; 37 C; Hill 3.3 ± 0.2; EMSA: 25 mM Tris-acetate, 2 mM Mg(OAc)2, 1 mM DTT, pH 7.5, 10 nM ssDNA, 25 C 10 min or 37 C 5 min; mass photometry: 20 mM Tris-HCl, 50 mM NaCl, pH 7.5; details: protein: recombinant; tags: His-tag (pET-15b)
RAD52(209) [11] = target: T2, RAD52(209); assay: EMSA; 37 C; Hill 4.1 ± 0.4; EMSA: 25 mM Tris-acetate, 2 mM Mg(OAc)2, 1 mM DTT, pH 7.5, 10 nM ssDNA, 25 C 10 min or 37 C 5 min; mass photometry: 20 mM Tris-HCl, 50 mM NaCl, pH 7.5; details: protein: recombinant; tags: His-tag (pET-15b); chain copies: 11
RAD52(209) [12] = target: T2, RAD52(209); assay: mass photometry; 100 nM protein, 10 nM DNA; ring shift 32 ± 2 kDa; EMSA: 25 mM Tris-acetate, 2 mM Mg(OAc)2, 1 mM DTT, pH 7.5, 10 nM ssDNA, 25 C 10 min or 37 C 5 min; mass photometry: 20 mM Tris-HCl, 50 mM NaCl, pH 7.5; details: protein: recombinant; tags: His-tag (pET-15b); chain copies: 11

B1: RAD52(209), human RAD52 truncated after amino acid 209 (domain or fragment, UniProt P43351 1-209, looked up)
chain: T2 sequence
notes: Expressed from pET-15b (plasmid a gift of S. C. West); No tag cleavage is described; The entry describes the protomer; also called C-terminally truncated RAD52; source: E. coli BL21(DE3) with pRARE, purified (Ni-NTA, size-exclusion chromatography)
Question: B1 was tested. Which “stoichiometry N” value [1] did it give?
Answer: 11

B2: full-length human RAD52 (natural protein, UniProt P43351 1-418, looked up)
chain: T1 sequence
notes: RAD52, human, full length; Expressed from pET-15b (plasmid a gift of W. Kagawa); No tag cleavage is described; The entry describes the protomer; the oligomer size varies with concentration; source: E. coli BL21(DE3) with pRARE, purified (Ni-NTA, size-exclusion chromatography)
Question: What does the source list for B2?
Answer: stoichiometry N [1]: 8 protomers to 12 protomers (2×) and 10; Kd [2]: 14 ± 2 nM; stoichiometry N [2]: 10.6 protomers per ring and 7 protomers to 13 protomers (2×)

Question: Which Kd (RAD52 full length [3]) does the source give for GCTCTAAGCCATCCGCAAAAATGACCTCTTAT (ssDNA) [32 nt] here?
Answer: 115 ± 22 nM

Question: What about the Kd (RAD52(209) [4]) of the same binder?
Answer: 169 ± 24 nM

Question: What about the Kd (RAD52 full length [5]) of the same binder?
Answer: 135 ± 4 nM

Question: And the Kd (RAD52(209) [6])?
Answer: 246 ± 33 nM

B3: 83 nt (ssDNA)
DNA: TTTATATAATTTACTTTATTTTCTATGTCTATTCATTTACTTATTGTGTATTATCCTTATACTTACTTACTTTATGTTTATTT
Question: Does B3 bind (RAD52(209) [7])?
Answer: binds

B4: 70 nt (ssDNA)
DNA: TTTAATAATTTACTTTATTTTCTATGTCTATTCATTTACTTATTGTGTATTATCCTTATACTTACTTAC
Question: With B4 as the binder, how does the Kd (RAD52(209) [8]) read?
Answer: 109 ± 23 nM

Question: And the Kd (RAD52 full length [9])?
Answer: 53 ± 8 nM

B5: 60 nt (ssDNA)
DNA: TCCTTTTGATAAGAGGTCATTTTTGCGGATGGCTTAGAGCTTAATTGCTTTTTTTTTTTT
Question: How did the Kd (RAD52 full length [10]) turn out when B5 was run?
Answer: 112.4 ± 0.1 nM

Question: What about the Kd (RAD52(209) [11]) of the same binder?
Answer: 127 ± 10 nM

Question: Does GCAATTAAGCTCTAAGCCATCCGCAAAAATGACCTCTTATCAAAAGGA (ssDNA) [48 nt unlabeled] bind (RAD52(209) [12])?
Answer: binds

— PMC12002259, “Monomers and short oligomers of human RAD52 promote single-strand annealing” (Proceedings of the National Academy of Sciences of the …, 2023)
